Measurements from the nanobody polyreactivity screen of Harvey et al. (2022).

Experiment: yeast display, Sf9 membrane polyspecificity reagent, FACS + sequencing; frameworks hold sequencing errors
Outline: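 Synthetic nanobody libraries on Saccharomyces cerevisiae BJ5465 were galactose-induced for 36–48 hours, stained 1 hour at 4 °C with 10% biotinylated, detergent-solubilized Sf9 membrane reagent and enriched on streptavidin microbeads. FACS then separated cells into low and high (top ~1%) gates by anti-HA (expression) and streptavidin (reagent binding) fluorescence. Genes were colony-PCR amplified, MiSeq 2 × 250 sequenced and CDR-length filtered. A clone's polyreactivity label is that of its gate of origin.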

| Sequence | polyreactivity (PSR sort gate) |
| --- | --- |
| QVQLVESGGGLVQAGGSLRLSCAASGSTFTTYAMGWYRQAPGKERELVAAITVDGGGTYYADSVKGRFTISRDNAKNTVYLQMNSLKPVDTAVYYCAAVTKLGYPPVNHLEDDYWGQGTQVTVSS | low polyreactivity |
| QVQLVESGGGLVQAGGSLRLSCAASGSTFDTYGMGWYIQAPGKERELDASISSRGGSTYYADSVEGRFTISRDNAKNSVYLQMNSLKPDDTAVYYCAADWLSWFHGYGMYYWGQGTKVTVSS | low polyreactivity |
| QVQLVESGGGLVQAGGSLRLSCAASGITFSGNAMGWYRQAPGKERELVAAISGRGGSTYYADSVKGRFTISRDNAKNTVYLQMNSLKPVDTAVYYCAADSPENRYNYWGQGTQVTVSS | high polyreactivity |
| QVQLVESGGGLVQAGGSLRLSCAASGSIFTYNVMGWYRQAPGKERELVASISWSGGRTYYADSVKGRFTISRDYAKNTVYLQMNSLKPEDTAVYYCNNVRPPVYFPNRDYWGQGTQVNVSS | low polyreactivity |
| QVQLQESGGGLVKAGGSLRLSCAASGNISPRDAMGWYRQAPGEERDLVASNAYSAITYYADGVKGRYTISRDNAKNTVYLQMNSLKPEDTVVYYCAVYQFTYPVFPAYWGQGTQVTVSS | low polyreactivity |
| QVQLVESGGGLVQAGGSLRLSCAASGFIFRGYAMGWYRQAPGKERELVAVISRSGTSTYYADSVKGRFTISRDNAKNTVYLQMNSLKPEDTAVYYCAKEVWPRYIRQAYLSGYESWGQGTQVTVSS | high polyreactivity |
| QVQLVESGGGLVQAGGSLRLSCAASGSLFGGYAMGWYRQAPGKERELVAAISGSGGSTYYADSVKGRFTISRDNAKNTVYLQMNSLKPEDTAVYYCAAEYYGTYSEGGESYDYWGQGTQVTVSP | low polyreactivity |
| QDQLVESGGGLVQAGGSLRLSCAASGIIFHFNDMGWYRQAPGKERELVAAITSGGSTNYADSVKGRFTISRDNAKNTLYLQMNSLKPEDTAVYYCAARRGLRLFAYRHGYWGQGTQVTVSS | low polyreactivity |
| QVQLVESGGGLVQAGGSLRLSCAASVSTFSTYAMGWYRQAPGKERELVAASTWRGSSTYYADSVKGRFTISRDNAKKTVYLQMNSLKPEDTAVYYCAAEDTFYEYYYWGQGTQVTVSS | high polyreactivity |
| QVQLVESGGGLVQAGGSLRLSCAASGITFVANAMGWYRQAPGKERELVAAISYSGASTYADSVKGRFTISRDNAKNTVYLQMNSLKPEDTAVYYCAKDGPYTYGREIYVYWGQGTLVTVSS | low polyreactivity |
| QVQLVESGGGLVQAGGSLRLSCAASGNIICGNAMGWYRQAPGKERELVAAISRRSGSTYYADSVKGRFTISRDNAKNTVYLQMNSLKPEDTAVYYCNTAGRVGTYDYWGQGTQVTVSS | high polyreactivity |
| QVQLVESGGRIVQAGGSLRLSCAASGRTFLYNVMGWSRQAPGKERELVAAITSGGRTYYADSVKGRFTISRDNAKNTVYLQMNSLKPEDTAVYYCNADRQLYIYRYDYWGQGTQVTVSS | low polyreactivity |
| QVQLVESGGGLVQAGGSLRLSCADSGIIFWRYAMGWYRQAPGKERELVATITSGGSTDYADSVKGRFTISRDNAKNTVYLQMNSLKPEDTAVYYCAALGYATGYWRYYYWGQGTQVTVSS | low polyreactivity |
| QVQLVESGGGLVQAGGSLRLSCAASGITFPANARGWYRQAPGKERELVADISESDGSTYYADSVKGRFTISRDNAKNTVFLQMNSLKPEDTAVYYCAADGTSGTRSDYWGQCTQVTVSS | low polyreactivity |
| QVQLVESGGGLVQAGGSLRLSCAASGFTFQTYAMGWYRQAPGKERELVATINSSGGGTYYADSVKGRFTISRDNAKNTVYLQMNSLKPEDTAVYYCAADAVWFVGQAFDISDSTTYGYWGQGTQVTVSS | low polyreactivity |
| QVQLVESGGGLVQAGGSLRFSCAASGSIFKTNAIGWYRQAPGKERELVAAIRASGGSTYYADSVKGRFTISRDNAKNTVYLQMNSLKPEDTAVYYCAARVSGSRKYYYWGQGTQVTVSS | high polyreactivity |

| Sequence | polyreactivity (PSR sort gate) |
| --- | --- |
| QVQLVESGGVLVQAGGSLRLSCAASGRTFSPYAMGWARQAPGKDRELVAAITSRGASTYYADSVKGRFTISRDNAKNTVYLQMNSLKPEDTAVYYCNSGRTYRRLGDYWGQGTQVTVSS | high polyreactivity |
| QVQLVESGGGLVQAGGSLRLSCAASGSIFYNYGMGWYRQAAGKEGELVAAIRASGDSTYYADSVKGRFTISRDNAKNTLYLQINSQKPEDTAVYYCAARPNQSYNGLYYYWGQGTQVTVSS | low polyreactivity |
| QVQLVESGGGLVQAGGSLRLSCAASGLTLGSYTMGWYRQAPGKERELVAAIRKRGSSSYYADSVKGRFTISRDNAKNTVYLQMISQKPEDTAVYYCATDVASYWYRFFWRYGYWGQGTQVTVSS | low polyreactivity |
| QFQLVESGGGLVQAGGSLRLSCAASGRTFKVYAMGWYRQAPGKERELVAAITGGGSTNYADSEKGRFTISRDNAKNTVYLQMNRLKAEDTAVYYGNARYYYRLVKWSRFSSYDYWGQGTQVTVSS | low polyreactivity |
| QVQLVESGGGLVQAGGSHRLSCAASGRIFVGYTMGWYRQAPGKERELVAAITSGGSTYYADSVKGRFTISRDNAKNTVYLQMNSLNPEDTAVYYCNAAYQFDSYHLGGYGYEYWGQGTQVTVSS | low polyreactivity |
| QVQLVESGGGLVQAGGSLRLSCAASGRTFGFYAMGWYRQAPGKERELVATISSSGGSTYYADSVKGRYTISRDNAKNTVYIQMNSLKPEDTAVYYCAKVVSGWRSHYIGDYWGQGTQVTVSS | low polyreactivity |
| QVQLVESGGGLDQAGGSLRLSCAASGITFSTYAMGWYRQAPGKEREFVAAISASGGTTYYADSVKGRFTISRDNAKNTVYLQMNSLKPEDTAVYYCAADRFRVYLIYIWAMGYWGQGTQVTVSS | high polyreactivity |
| QVQLVESGGGLVQAGGSLRLSCAASGFIVRRYAMGWYRQAPGKERELVAAITSSGTSTYYADSVKGRFTISRDTAKYTVYLQMNSLKPEDTAVYYCAAVYQYTHYYSNYRYWGQGTQVTVSS | high polyreactivity |
| QVQLVESWGGLVQAGGSLRLSCAASGHTFREKAMGWYRQAPGKERELLAAITSSGRTYYADSVKGRFTISRDNAKNTVYLQMNRQKPEDTAVYYCAADYWYVYPRYNPGDYWGQGSQVTVSS | high polyreactivity |
| QVQLVESGGGLVQAGGSLRLSCAASGITFYGYDMGWYRQAPGKERELVAAITSDGITNYADSVKGRFTISRDNAKNTVYLQMNSLKPEDTAVYYCAADLSFYRRYEWYYYWGQGTQVTVSS | low polyreactivity |
| QVHLVESGGGLVQAGRSLRLSCAASGRTSAYYAMGWYRQAPGKERELDAGITRGGRTNYADSVKGRFTISRDNAKNTVYLQMNSLKPEDTAVYYCAAKYGYYWNSRTSGYWGQGTQVTVSS | high polyreactivity |
| QVQHVESGGGLVQAGGSLRLSCAASGIIFRDYGMGWYRQAPGKEREFVATITYSGGGTYYADSVKGRFTISRDNAKNTVYLQMNSLKPEDTAVYYCAAYPFYYDLAYDYWGQGTQVTVSS | low polyreactivity |
| QVQLVESGGGLVQAGGSLRLSCAASGITFNYYAKGSYRQAPGKERELVATINRSGGTTYYADSVKGRFTISRDNAKNTVYLQMNSLKPAVTAVYYCGALSKTRGGYWGQGTQVTVSS | high polyreactivity |
| QDQHVESGGGLVQAGGSLRLSCAASGSIFDVYTMGWYRQAPGKERELVAAINTGGGSTYYADSVKGRFTISRDKAKNTVYLQMNSLKPEDTAVYYCAASVYHYGPLYYWGQGTQVTVSS | low polyreactivity |
| QVQLLESGGGLVQAGGSLRLSCAASGSIFVKYDMGWYRQAPGKDRELVAAIRSGASTTYADSVKGRFTISRDNAKITVYLQMNSLKPEDTAVYYCAADQRGWGYTYGKGGDYWGQGTQVTVSS | low polyreactivity |
